Test results as given in the DeepSol protein solubility set.

Assay: soluble on expression in E. coli; label from the status in PepcDB or PDB records

Row | Sequence | soluble on expression in E. coli
1 | MAVTNVAELNALVERVKKAQREYASFTQEQVDKIFRAAALAAADARIPLAKMAVAESGMGIVEDKVIKNHFASEYIYNAYKDEKTCGVLSEDDTFGTITIAEPIGIICGIVPTTNPTSTAIFKSLISLKTRNAIIFSPHPRAKEATNKAADIVLQAAIAAGAPKDLIGWIDQPSVELSNALMHHPDINLILATGGPGMVKAAYSSGKPAIGVGAGNTPVVIDETADIKRAVASVLMSKTFDNGVICASEQSVVVVDSVYDAVRERFASHGGYMLQGQELKAVQNVILKNGALNAAIVGQPAYKIAELAGFSVPETTKILIGEVTVVDESEPFAHEKLSPTLAMYRAKDFEEAVEKAEKLVAMGGIGHTSCLYTDQDNQPERVAYFGQMMKTARILINTPASQGGIGDLYNFKLAPSLTLGCGSWGGNSISENVGPKHLINKKTVAKRAENMLWHKLPKSIYFRRGSLPIALDEVITDGHKRALIVTDRFLFNNGYADQITSVLKAAGVETEVFFEVEADPTLSVVRKGAELANSFKPDVIIALGGGSPMDAAKIMWVMYEHPETHFEELALRFMDIRKRIYKFPKMGVKAKMIAVTTTSGTGSEVTPFAVVTDDATGQKYPLADYALTPDMAIVDANLVMDMPKSLCAFGGLDAVTHALEAYVSVLASEFSDGQALQALKLLKENLPASYHEGSKNPVARERVHSAATIAGIAFANAFLGVCHSMAHKLGSQFHIPHGLANALLICNVIRYNANDNPTKQTAFSQYDRPQARRRYAEIADHLGLSAPGDRTAAKIEKLLAWLESIKAELGIPKSIREAGVQEADFLAHVDKLSEDAFDDQCTGANPRYPLISELKQILLDTYYGRDFTEGEVAAKKDVVAAPKAEKKAKKSA | soluble
2 | MSLRYIVALTGGIGSGKSTVANAFADLGINVIDADIIARQVVEPGAPALHAIADHFGANMIAADGTLQRRALRERIFANPEEKNWLNALLHPLIQQETQHQIQQATSPYVLWVVPLLVENSLYKKANRVLVVDVSPETQLKRTMQRDDVTREHVEQILAAQATREARLAVADDVIDNNGAPDAIASDVARLHAHYLQLASQFVSQEKPEGGSHHHHHH | soluble
3 | MAHHHHHHMHIFIYIQYLCFGVNEIIFHKPHKCHFFIYNILEGEKGKKPGFINLSNIMNNHNKYESKGFSASSLNNKSFSMTNDKITCGNEKKEMEGEGILNGSSKVDEEDKNIYNSKNNNNNMNYFNNKKIETKKTLGHKDIFVYVLVAGGDGTVNWVLKEAEYYNINDNNFAIGVIPFGTGNDFAKAFGWKKIDRMLNHSFLFDVLKKIVDQTFKSKVEKHDYWNIHVVLKEQGYFNKINSRTKKKETLLNDDKENLHEMKLCMSNYFSIGIDSRIGRGFERHRQKSAVCNKFIYAVEGFKKVSFKKNTPINLIIDKMINMDNNNDNNDNDNNIDGNDNNNDGNDNNNVIFTTNHNESYPLLKKAMSIICINIPSYSSGNDIWNYTHKIGLILPKNITNDQKEQYQILKKTKQEVGDGILEFVIYQSGVDLGLEFTLKGRAYRVHQGFGPWKLLFKEQKYNVYFQVDGEYYLMSLPDYISIEHYKKINVLKNIL | not soluble
4 | DAVELFKKANAMLDEDEDERVDEAALRQLTEMGFPENRATKALQLNHMSVPQAMEWLIEHAEDPTIDTPL | soluble
5 | MTKKKAKKNQKTGAAAAPPHESQKKEKENDFEMLEDIKRDEDLFFSETDISNISNFIRTTNKSFNSLGNTFVEQFTNRCSLAIFQALATCFEIHSEERDDVIRRLNIIYIVWRLPDLEPELRPKPPKNLSDVYSHPYATFLFAAEQIEHRIEAMLARIIVSNNINQVEKLTAPDFIQKAAAGGLTVVVEGIDRTGFVDWCEANTDHWPEVHDSVVPLPKAMRELGCERKDYESGMAEAFYPIMHNAPTQLPPRMEALEQEDPIIREWRLKVDPENTSATPVIYSMCSGDKMQEELMQAFDELEPTIAEYQSDLIAGMTAPELEELNKQIDCDDQMSQSSDSAPPSEVSSDLELDTALDIRDGMTMPLVDLKDEVIEGCVDRILDGTTLTTSKSDMMIQFVRTALITHPQYDRLLQASVLDENIISFIRTNVKFAGAFLVRNALSEQDTCLLFKRYMRLCEGVNSTVHSLETVLKLSKEFIEHDKLTQEHREVVLAFVRHTIRTCEGDRTVRLVAMLVKKLLRERVLNVEDIAADVKPFTLKYTDNRECTALYQSMINMQNGGGGGGQENMTTSTTTTTTTTKSSSPNSLSTTTTTTSHNPGASATTTTTTVVKTCGPATFKQTSRKVVLQFKNPSQNAHF | not soluble
6 | ADVHDKATRSKNMRAIATRDTAIEKRLASLLTGQGLAFRVQDASLPGRPDFVVDEYRCVIFTHGCFWHHHHCYLFKVPATRTEFWLEKIGKNVERDRRDISRLQELGWRVLIVWECALRGREKLTDEALTERLEEWICGEGASAQIDTQGIHLLA | soluble
7 | MLTDGSYFHLHLVSDSTGETLITVSRAVTAQYANVTPVEHVYPLVRSQKQLDRVLQEIEEAPGIVLFTLLETELVNRLEAKCQEINSPSLSIIGPVMQLFEAYLGASTMGRVGAQHTLNAEYFQRIDALNYSMMHDDGQHVEGLEEADVVLVGVSRTSKTPTSIYLANRGIRTANVPLVAGIPIPHQLETLKKPLVVSLHASPERLIQVRQNRLLSLGAGSGNDSYIDRQAVTDEVLLARKLSAKYGWSLLDVTRRSIEETAAAIMKLLADRQRQRVPELEHHHHHH | not soluble
8 | MIKLSNITKVFQQGTRTIQALNNVSLHVPAGQIYGVIGASGAGKSTLIRCVNLLERPTEGSVQVGGQELTTLSESELTKARRQIGMIFQHFNLLSSRTVFGNVALPLELDNTPKEEIKRRVTELLDLVGLGDKHDSYPANLSGGQKQRVAIARALASNPKVLLCDEATSALDPATTRSILELLKDINRRLGLTILLITHEMDVVKRICDCVAVISNGELIEQDTVSEVFSHPKTPLAQKFIQSTLHLDIPEDYQARLKASPETDSVPMLRMEFTGQSVDAPLLSETARRFNVNNNIISAQMDYAGGVKFGIMLTEMHGTQEETQAAIAWLQDHHVKVEVLGYV | not soluble
9 | MSNFMVENQTEQVSIFLEDAINLITNYVNYHTLPSLLEETPAGNERYYKGLLASMRRLLVFCEEGQDACFVLLNSQPFRKTAAEKILYKIYHQVIAEFFSPKSDHWYENSRSAYTGKNSIVFQQTPPASLEQVMKSLEGKFQLMREELEYYETDYQTKMLHKY | not soluble
10 | SHRRFRRHWLVSPSIWWHNRRILDFMPSENRLNGIDVCLNIGALERGSDCKRREERDMAGQAEQMAAELDRHGAAVFFREYPNADHGNVPFYSLTDCVEYLRKAWQR | not soluble
11 | MLDKTRLRIAMQKSGRLSDESQELLSRCGIKINLQQQRLIAFAENMPIDILRVRDDDIPGLVMDGVVDLGIIGENVLEEELLNRRAQGDDPRYFTLRRLDFGGCRLSLAAPLDAEYTGPQCLQDTRIATSYPHILKQYLDKQGVRFKSCLLNGSVEVAPRAGLADAICDLVSTGATLEANGLREVEVIYRSKACLIQRDGEMSVDKQQLIDRLMTRIQGVIQARESKYIMMHAPSERLDEIITLLPGAERPTILPLAGDKSRVAMHMVSSETLFWETMEKLKALGASSILVLPIEKMME | not soluble
12 | MPPKLRNFDKSMEKYTDVVLVVKQERFYVSRAILSEHCTYFQSLFCGDSNYQEHIISDVEPQDFQKFLEVVHGEPAIFEATVQKILPLAQKFGSKTVLQKCERFLITISTVRLSTKWNLAKQYGLDELQAHCKLEFKTAQIVRKNPQPEPKSLAYSDKFIFDHSFEKVDGLAEGDMRRSQPITHLDFTWTIYITRKNQHLRVSLCCGKAHLTSDWTVRADFKMTLTAKGSPDLVSDTKGFFHLDSEKNFYWELGQEVEWDEIRDKCLADGKLEVETRVRIVKIRELPVEEFKPPRIVTVNAVKSYEGVLSDYIRVTPLTQQAKTSAPAETPDLQTPPRQQASAKPQASPAKSAGAPQLPQKVPLFPSGGAPSSPSAPEAPSEPPPPKIYPTLGANAPPAPPVQGKKFILKNVFGNVEAMKCHTAMACQKAVAYDFEWNLIISQKNNRLHVSLCCSKSNVTSEFRILADFELIIAGKNGGRPLKSKTNGCFNIEKTKNSSQELGQDVEWSTIVYDYMVDGRLTVEAHVNITRVTCLDAPKFKKLRNFDATGNSWDVMLIVAGQRFFVLKEILISNSARFKNIISKINFTAAPSTEIKLPDSSADHFQNFLEACYGDPSINDDTVHGILKIAQSYEAAGIVKRCEEYVIKYSKKTLEQKEKLAKHHNLKTLKAHCDYWKSRRKCC | not soluble
